Assay [1] addresses MHC-I (endogenous, mouse primary cortical neurons) (mouse (endogenous in primary cortical neurons)) (UniProt P01901). The experiment in a line: co-IP; cultured mouse primary cortical neurons, with or without oligomeric Aβ; anti-mouse MHC-I antibody (2G5); endogenous MHC-I and NCAM1.
For assay [2], the target named is single-chain trimer (SCT) of HLA-A2.1 (TAX-HLA-A2.1-hβM). The experiment in a line: co-IP.

UniProt P01901, sequence (P01901 22-369): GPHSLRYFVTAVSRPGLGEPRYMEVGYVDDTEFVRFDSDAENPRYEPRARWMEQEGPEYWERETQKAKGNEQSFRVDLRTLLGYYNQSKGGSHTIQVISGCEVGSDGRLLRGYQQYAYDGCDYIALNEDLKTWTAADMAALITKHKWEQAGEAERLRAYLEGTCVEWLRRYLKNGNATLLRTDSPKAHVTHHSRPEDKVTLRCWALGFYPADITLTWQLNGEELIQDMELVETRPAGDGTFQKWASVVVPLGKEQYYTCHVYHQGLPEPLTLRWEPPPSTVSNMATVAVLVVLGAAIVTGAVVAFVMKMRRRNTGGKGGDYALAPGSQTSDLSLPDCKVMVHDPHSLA

“NCAM1 (endogenous, mouse primary cortical neurons) (from UniProt P13595 20-1115) (natural protein)”: the reduction of co-precipitated NCAM1 with Aβ treatment against control in assay [1] amounted to 50%. In turn, “NCAM1-hemagglutinin (HA) (from UniProt P13591 20-858) (natural protein)” showed a fold increase of the complex with Aβ treatment in assay [2] of 1.5 fold.
